This is an account of results in patent publication US20160002338A1 (Hoffmann-La Roche, published 2016).

Assay [1] has as its target T1, human recombinant HER3 ECD (human, UniProt P21860 20-643).
T1 construct: 68 kDa; also called human-Her3-ECD; full length Her3 ECD
In words: SPR Biacore 4000, antibody captured, antigen 150 nM, 25 C. How it is done:
(§1) In all assay the test antibodies were captured. The system was under the control of the software version V1.1. The instrument buffer was HBS-EP (10 mM HEPES (pH 7.4), 150 mM NaCl, 1 mM EDTA, 0.05% (w/v) P20). The system operated at 25° C. 30 μg/ml Rabbit polyclonal antibody (RAM IgG, (Rabbit anti Mouse IgG with Fc gamma specificity) GE Healthcare) in 10 mM sodium acetate buffer (pH 4.5) was immobilized using EDC/NHS chemistry according to the manufacturer's instructions on the spots 1, 2, 4 and 5 in the flow cells 1, 2, 3 and 4. The sensor was saturated using 1M ethanolamine. In each flow cell, referenced signals were calculated using spots 1-2 and spots 5-4, spot 3 served as a blanc control. […] The antibody capture level (CL) in response units was monitored. […] Thereafter, the antibody-antigen complex dissociation signal was recorded for 5 min. […] The recorded signal shortly before the end of the injection of the antigen was denoted as binding late (BL) in response units. The recorded signal shortly before the end of the recording of the dissociation is denoted as stability late (SL) in response units. The dissociation rate constants were determined calculated The antibody-antigen complex stability in minutes was calculated with the following formula: ln(2)/60*kd. The Molar Ratio was calculated with the formula: MW (antibody)/MW(antigen)*BL (antigen)/CL (antibody). […]
For orientation: In SPR one partner is held on a chip, and binding of the other changes the refractive index at the surface.

The target in another assay is T2, TtSlyD-FKBP-Her3.
T2 construct: 15 kDa; N-terminal Met may be present or not; also called Thermus thermophilus SlyD FKBP-Her3; thermo SlyD-Her3
T2 chain: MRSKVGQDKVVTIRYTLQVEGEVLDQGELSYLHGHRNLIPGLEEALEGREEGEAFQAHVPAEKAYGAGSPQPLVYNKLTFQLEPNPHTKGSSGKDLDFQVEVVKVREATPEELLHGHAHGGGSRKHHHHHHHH
Described as above. The procedure: as §1

T1 sequence (P21860 20-643): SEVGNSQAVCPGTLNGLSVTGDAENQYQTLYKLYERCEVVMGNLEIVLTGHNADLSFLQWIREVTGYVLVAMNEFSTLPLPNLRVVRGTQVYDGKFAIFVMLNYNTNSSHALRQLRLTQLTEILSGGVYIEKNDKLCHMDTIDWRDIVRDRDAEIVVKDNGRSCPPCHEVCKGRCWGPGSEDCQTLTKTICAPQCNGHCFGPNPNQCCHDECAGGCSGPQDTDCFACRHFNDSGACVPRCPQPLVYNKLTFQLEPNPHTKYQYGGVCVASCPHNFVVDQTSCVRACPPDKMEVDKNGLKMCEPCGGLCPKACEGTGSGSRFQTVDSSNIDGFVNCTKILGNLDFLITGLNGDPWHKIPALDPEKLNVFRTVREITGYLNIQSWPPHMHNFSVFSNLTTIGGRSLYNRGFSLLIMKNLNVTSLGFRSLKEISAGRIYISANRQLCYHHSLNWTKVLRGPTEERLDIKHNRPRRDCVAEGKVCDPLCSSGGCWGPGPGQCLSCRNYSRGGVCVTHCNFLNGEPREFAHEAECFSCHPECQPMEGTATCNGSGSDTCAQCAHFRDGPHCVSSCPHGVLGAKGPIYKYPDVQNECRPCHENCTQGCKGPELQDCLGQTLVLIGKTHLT

B1: anti-HER3/HER4 antibody M-05-74 (antibody, V domains shown)
VH: QVQLQQSGAELAKPGASVKMSCKTSGYTLTDYWIHWVKQRPGQGLEWIGYINPYTGYTESNQKFKDKATLTADKSSNTAYIQLSSLTSEDSAVYYCARPYYYGDYWGQGTTLTVSS
VL: QIVLTQSPAIMSASPGERVTITCSASSSVSYMHWFQQKPGTSPKLLIYSTSNLASGVPARFSGSGSGTSYSLTISRMEAEDAATYYCQQRSSYPFTFGSGTKLEIK
notes: murine monoclonal antibody from hybridoma (supernatant or purified); also called M-074; M-5-74
Turning to B1, the “Molar Ratio MR” value came out at 0.5 in assay [1] and 1.1 in the assay with TtSlyD-FKBP-Her3.
